# Changes are numbered by the printed parent chain.
# B1: Hab015VL4VH1a-hFc (scFv, part only; not given: scFv linker and human IgG1 Fc, V domains shown, not shown: another chain or arm of the molecule; a dimerising Fc or GST; small tags and cut ends)
# VL: NIVLTQSPATLSLSPGERATLSCKASENVGTYVSWFQQKPGQSPRLLIYGASNRYTGIPARFSGSGSGTDFTLTISSLEPEDFAVYYCGQFYSFPSTFGGGTKVEIK
# VH: EVQLVESGGGLVKPGGSLRLSCAASGITFSNFWMNWVRQAPGKGLEWVGQIRLKSDDYATHYAESVKGRFTISREDSKNTVYLQMNSLKTEDTAVYYCTTGYYFDYWGQGTTVTVSS
# B2: Hab015VL4VH5a-hFc (scFv, part only; not given: VL-VH linker and human IgG1 Fc, V domains shown, not shown: another chain or arm of the molecule; a dimerising Fc or GST; small tags and cut ends)
# VL: B1 VL
# VH: B1 VH with A23V
# Target: human DLL3 protein expressed on CHO-K1 recombinant cells (human DLL3 extracellular segment fused to EpCAM transmembrane and intracellular regions) (human) (UniProt Q9NYJ7)
# Assay: FACS, CHO-K1 hDLL3 cells, 4 nM antibody
# Sequence of human DLL3 protein expressed on CHO-K1 recombinant cells (human DLL3 extracellular segment fused to EpCAM transmembrane and intracellular regions) (human) (Q9NYJ7 other isoform, or with tags, fused parts or gaps limits assumed): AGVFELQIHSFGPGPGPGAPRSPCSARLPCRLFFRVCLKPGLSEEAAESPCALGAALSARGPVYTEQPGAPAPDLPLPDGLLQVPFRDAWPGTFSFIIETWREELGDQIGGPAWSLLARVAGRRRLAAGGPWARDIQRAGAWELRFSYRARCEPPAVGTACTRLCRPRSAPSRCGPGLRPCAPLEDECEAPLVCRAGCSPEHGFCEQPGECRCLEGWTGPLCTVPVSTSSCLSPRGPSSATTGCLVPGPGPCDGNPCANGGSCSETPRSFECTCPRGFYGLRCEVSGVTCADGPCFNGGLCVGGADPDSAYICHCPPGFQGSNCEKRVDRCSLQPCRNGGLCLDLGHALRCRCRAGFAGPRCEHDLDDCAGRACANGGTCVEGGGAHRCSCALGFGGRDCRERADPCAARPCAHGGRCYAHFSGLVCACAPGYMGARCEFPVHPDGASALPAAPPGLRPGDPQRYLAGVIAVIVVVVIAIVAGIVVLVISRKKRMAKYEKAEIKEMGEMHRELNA
row,Binder,MFI [MFI]
1,B1,7920
2,B2,10900

# Target: mouse DLL3 on CHO-K1-mDLL3 cells (mouse) (UniProt O88516)
# Assay: FACS, CHO-K1-mDLL3 cells, 0.8 nM antibody
# Sequence of mouse DLL3 on CHO-K1-mDLL3 cells (mouse) (O88516 other isoform, or with tags, fused parts or gaps limits assumed): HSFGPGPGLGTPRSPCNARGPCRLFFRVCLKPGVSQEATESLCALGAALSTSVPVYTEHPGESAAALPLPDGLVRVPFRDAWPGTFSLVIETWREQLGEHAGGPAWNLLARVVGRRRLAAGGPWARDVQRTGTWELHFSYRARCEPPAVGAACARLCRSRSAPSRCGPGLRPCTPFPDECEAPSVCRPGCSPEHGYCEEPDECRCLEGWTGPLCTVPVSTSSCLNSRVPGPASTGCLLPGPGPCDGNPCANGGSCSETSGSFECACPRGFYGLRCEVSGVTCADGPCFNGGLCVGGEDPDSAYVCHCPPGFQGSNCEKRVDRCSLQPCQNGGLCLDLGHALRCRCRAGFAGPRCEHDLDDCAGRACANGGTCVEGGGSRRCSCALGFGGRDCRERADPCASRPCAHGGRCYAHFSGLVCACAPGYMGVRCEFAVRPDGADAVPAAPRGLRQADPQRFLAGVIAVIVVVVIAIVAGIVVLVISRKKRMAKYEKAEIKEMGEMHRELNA
row,Binder,MFI [MFI]
1,B1,779
2,B2,875

# Target: human DLL3 protein expressed on CHO-K1 recombinant cells (human DLL3 extracellular segment fused to EpCAM transmembrane and intracellular regions) (human) (UniProt Q9NYJ7)
# Assay: FACS, CHO-K1 hDLL3 cells, 100 nM antibody
row,Binder,MFI [MFI]
1,B1,11400
2,B2,12400

# Target: mouse DLL3 on CHO-K1-mDLL3 cells (mouse) (UniProt O88516)
# Assay: FACS, CHO-K1-mDLL3 cells, 0.032 nM antibody
row,Binder,MFI [MFI]
1,B1,172
2,B2,170

# Target: monkey DLL3 on CHO-K1-cyno DLL3 cells (cynomolgus monkey)
# Assay: FACS, CHO-K1-cyno DLL3 cells, 0.032 nM antibody
# Sequence of monkey DLL3 on CHO-K1-cyno DLL3 cells (cynomolgus monkey) (chain, as listed by the source limits assumed): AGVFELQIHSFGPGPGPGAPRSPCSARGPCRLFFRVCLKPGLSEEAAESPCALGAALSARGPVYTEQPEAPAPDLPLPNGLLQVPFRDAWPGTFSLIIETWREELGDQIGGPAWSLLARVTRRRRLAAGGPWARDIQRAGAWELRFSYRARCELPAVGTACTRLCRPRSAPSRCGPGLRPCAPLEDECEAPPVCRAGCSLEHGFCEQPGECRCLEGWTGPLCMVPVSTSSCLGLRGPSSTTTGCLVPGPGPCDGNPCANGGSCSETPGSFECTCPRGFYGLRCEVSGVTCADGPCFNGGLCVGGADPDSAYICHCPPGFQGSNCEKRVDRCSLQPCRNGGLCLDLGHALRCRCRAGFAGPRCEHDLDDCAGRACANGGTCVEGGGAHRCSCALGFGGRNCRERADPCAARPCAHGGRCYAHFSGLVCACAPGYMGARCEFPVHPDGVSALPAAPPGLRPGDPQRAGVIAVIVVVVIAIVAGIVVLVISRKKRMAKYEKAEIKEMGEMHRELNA
row,Binder,MFI [MFI]
1,B1,399
2,B2,377

# Target: human DLL3 protein expressed on CHO-K1 recombinant cells (human DLL3 extracellular segment fused to EpCAM transmembrane and intracellular regions) (human) (UniProt Q9NYJ7)
# Assay: FACS, CHO-K1 hDLL3 cells, 0.032 nM antibody
row,Binder,MFI [MFI]
1,B1,294
2,B2,283

# Target: DLL3 endogenously expressed on NCI-H82 cells (UniProt Q9NYJ7)
# Assay: FACS on NCI-H82 cells; antibody 100 nM
# Sequence of DLL3 endogenously expressed on NCI-H82 cells (Q9NYJ7 27-618): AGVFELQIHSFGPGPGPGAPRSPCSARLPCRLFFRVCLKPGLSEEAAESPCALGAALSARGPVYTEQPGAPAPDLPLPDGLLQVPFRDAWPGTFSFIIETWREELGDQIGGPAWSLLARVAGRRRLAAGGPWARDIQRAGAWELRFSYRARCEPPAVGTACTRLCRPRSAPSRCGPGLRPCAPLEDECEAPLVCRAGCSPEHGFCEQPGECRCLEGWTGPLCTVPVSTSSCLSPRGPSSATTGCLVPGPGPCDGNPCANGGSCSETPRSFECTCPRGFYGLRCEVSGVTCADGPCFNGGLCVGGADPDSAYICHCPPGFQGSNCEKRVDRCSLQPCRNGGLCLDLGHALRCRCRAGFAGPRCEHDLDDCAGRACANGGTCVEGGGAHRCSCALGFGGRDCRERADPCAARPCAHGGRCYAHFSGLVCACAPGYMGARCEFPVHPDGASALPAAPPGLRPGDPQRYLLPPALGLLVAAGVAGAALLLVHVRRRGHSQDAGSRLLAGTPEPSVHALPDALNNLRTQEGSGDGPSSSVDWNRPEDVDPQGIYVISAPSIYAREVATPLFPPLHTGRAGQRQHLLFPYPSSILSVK
row,Binder,MFI
1,B1,1520
2,B2,1510

# Target: mouse DLL3 on CHO-K1-mDLL3 cells (mouse) (UniProt O88516)
# Assay: FACS, CHO-K1-mDLL3 cells, 0.00128 nM antibody
row,Binder,MFI [MFI]
1,B1,117
2,B2,117

# Target: monkey DLL3 on CHO-K1-cyno DLL3 cells (cynomolgus monkey)
# Assay: FACS, CHO-K1-cyno DLL3 cells, 0.0064 nM antibody
row,Binder,MFI [MFI]
1,B1,168
2,B2,164

# Target: monkey DLL3 on CHO-K1-cyno DLL3 cells (cynomolgus monkey)
# Assay: FACS, CHO-K1-cyno DLL3 cells, 0.8 nM antibody
row,Binder,MFI [MFI]
1,B1,4470
2,B2,4480

# Target: mouse DLL3 on CHO-K1-mDLL3 cells (mouse) (UniProt O88516)
# Assay: FACS, CHO-K1-mDLL3 cells, 0.16 nM antibody
row,Binder,MFI [MFI]
1,B1,339
2,B2,350

# Target: human DLL1 protein (Acro, Cat. No. DL1-H52H8) (human) (UniProt O00548)
# Assay: ELISA, coated hDLL1; maximum over 0.1, 1, 10, 100 nM antibody
# Sequence of human DLL1 protein (Acro, Cat. No. DL1-H52H8) (human) (O00548 18-540 limits assumed): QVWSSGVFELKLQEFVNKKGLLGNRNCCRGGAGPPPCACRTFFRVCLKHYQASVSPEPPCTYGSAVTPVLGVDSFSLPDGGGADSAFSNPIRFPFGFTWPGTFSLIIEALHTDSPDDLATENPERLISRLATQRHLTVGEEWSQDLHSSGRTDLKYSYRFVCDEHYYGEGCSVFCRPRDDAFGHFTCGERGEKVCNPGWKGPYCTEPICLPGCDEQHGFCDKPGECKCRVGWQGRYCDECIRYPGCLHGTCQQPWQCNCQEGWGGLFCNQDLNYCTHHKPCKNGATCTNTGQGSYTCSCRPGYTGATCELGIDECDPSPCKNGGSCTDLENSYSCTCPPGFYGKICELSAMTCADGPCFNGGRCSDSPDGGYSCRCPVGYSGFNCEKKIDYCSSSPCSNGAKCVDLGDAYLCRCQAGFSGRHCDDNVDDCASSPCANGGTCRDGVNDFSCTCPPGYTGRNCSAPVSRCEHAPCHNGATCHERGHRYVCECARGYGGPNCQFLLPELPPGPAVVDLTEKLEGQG
row,Binder,Emax of OD450 nm binding value [OD450 nm]
1,B1,0.44
2,B2,0.42

# Target: mouse DLL3 on CHO-K1-mDLL3 cells (mouse) (UniProt O88516)
# Assay: FACS, CHO-K1-mDLL3 cells, 0.0064 nM antibody
row,Binder,MFI [MFI]
1,B1,123
2,B2,126

# Target: DLL3 endogenously expressed on NCI-H82 cells (UniProt Q9NYJ7)
# Assay: FACS on NCI-H82 cells; antibody 0.00128 nM
row,Binder,MFI
1,B1,118
2,B2,118

# Target: human DLL4 protein (Acro, Cat. No. DL4-H5227) (human) (UniProt Q9NR61)
# Assay: ELISA, coated hDLL4; maximum over 0.1, 1, 10, 100 nM antibody
# Sequence of human DLL4 protein (Acro, Cat. No. DL4-H5227) (human) (Q9NR61 27-524 limits assumed): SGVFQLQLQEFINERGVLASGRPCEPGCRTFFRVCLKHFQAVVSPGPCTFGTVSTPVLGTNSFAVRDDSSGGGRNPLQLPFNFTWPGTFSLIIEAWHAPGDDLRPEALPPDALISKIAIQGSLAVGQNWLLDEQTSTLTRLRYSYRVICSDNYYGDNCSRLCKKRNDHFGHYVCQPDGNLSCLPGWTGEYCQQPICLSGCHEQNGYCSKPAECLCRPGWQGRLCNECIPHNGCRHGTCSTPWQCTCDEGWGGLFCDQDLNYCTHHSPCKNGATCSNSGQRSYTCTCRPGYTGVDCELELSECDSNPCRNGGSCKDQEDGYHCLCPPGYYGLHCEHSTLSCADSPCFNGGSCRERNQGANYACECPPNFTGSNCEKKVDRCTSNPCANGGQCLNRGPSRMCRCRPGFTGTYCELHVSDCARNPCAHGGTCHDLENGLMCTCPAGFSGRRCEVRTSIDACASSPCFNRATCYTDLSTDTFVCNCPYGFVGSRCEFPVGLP
row,Binder,Emax of OD450 nm binding value [OD450 nm]
1,B1,0.65
2,B2,0.71

# Target: DLL3 endogenously expressed on NCI-H82 cells (UniProt Q9NYJ7)
# Assay: FACS on NCI-H82 cells; antibody 0.0064 nM
row,Binder,MFI
1,B1,137
2,B2,135

# Target: human delta-like ligand 3 (DLL3) on SHP77 cells (human) (UniProt Q9NYJ7)
# Assay: FACS on SHP77 cells
# Sequence of human delta-like ligand 3 (DLL3) on SHP77 cells (human) (Q9NYJ7 27-618, stated change not applied): as the sequence (Q9NYJ7 27-618) above
Binder,MFI at 0.00128 nM [MFI],MFI at 0.0064 nM [MFI],MFI at 0.032 nM [MFI],MFI at 0.16 nM [MFI],MFI at 0.8 nM [MFI],MFI at 4 nM [MFI],MFI at 20 nM [MFI],MFI at 100 nM [MFI]
B1,99,112,174,385,730,762,962,1240
B2,100,117,179,368,709,812,997,1250

# Target: monkey DLL3 on CHO-K1-cyno DLL3 cells (cynomolgus monkey)
# Assay: FACS, CHO-K1-cyno DLL3 cells, 100 nM antibody
row,Binder,MFI [MFI]
1,B1,7590
2,B2,7610

# Target: monkey DLL3 on CHO-K1-cyno DLL3 cells (cynomolgus monkey)
# Assay: FACS, CHO-K1-cyno DLL3 cells, 0.16 nM antibody
row,Binder,MFI [MFI]
1,B1,1240
2,B2,1180

# Target: mouse DLL3 on CHO-K1-mDLL3 cells (mouse) (UniProt O88516)
# Assay: FACS, CHO-K1-mDLL3 cells, 20 nM antibody
row,Binder,MFI [MFI]
1,B1,1150
2,B2,1420

# Target: DLL3 endogenously expressed on NCI-H82 cells (UniProt Q9NYJ7)
# Assay: FACS on NCI-H82 cells; antibody 4 nM
row,Binder,MFI
1,B1,1060
2,B2,1030

# Target: monkey DLL3 on CHO-K1-cyno DLL3 cells (cynomolgus monkey)
# Assay: FACS, CHO-K1-cyno DLL3 cells, 0.00128 nM antibody
row,Binder,MFI [MFI]
1,B1,123
2,B2,122

# Target: DLL3 endogenously expressed on NCI-H82 cells (UniProt Q9NYJ7)
# Assay: FACS on NCI-H82 cells; antibody 0.032 nM
row,Binder,MFI
1,B1,213
2,B2,212

# Target: human DLL3 protein expressed on CHO-K1 recombinant cells (human DLL3 extracellular segment fused to EpCAM transmembrane and intracellular regions) (human) (UniProt Q9NYJ7)
# Assay: FACS, CHO-K1 hDLL3 cells, 20 nM antibody
row,Binder,MFI [MFI]
1,B1,10600
2,B2,12000

# Target: DLL3 endogenously expressed on NCI-H82 cells (UniProt Q9NYJ7)
# Assay: FACS on NCI-H82 cells; antibody 20 nM
row,Binder,MFI
1,B1,1200
2,B2,1190

# Target: DLL3 endogenously expressed on NCI-H82 cells (UniProt Q9NYJ7)
# Assay: FACS on NCI-H82 cells; antibody 0.16 nM
row,Binder,MFI
1,B1,489
2,B2,476

# Target: human DLL3 protein expressed on CHO-K1 recombinant cells (human DLL3 extracellular segment fused to EpCAM transmembrane and intracellular regions) (human) (UniProt Q9NYJ7)
# Assay: FACS, CHO-K1 hDLL3 cells, 0.00128 nM antibody
row,Binder,MFI [MFI]
1,B1,122
2,B2,122

# Target: mouse DLL3 on CHO-K1-mDLL3 cells (mouse) (UniProt O88516)
# Assay: FACS, CHO-K1-mDLL3 cells, 100 nM antibody
row,Binder,MFI [MFI]
1,B1,1450
2,B2,1530

# Target: human DLL3 protein expressed on CHO-K1 recombinant cells (human DLL3 extracellular segment fused to EpCAM transmembrane and intracellular regions) (human) (UniProt Q9NYJ7)
# Assay: FACS, CHO-K1 hDLL3 cells, 0.0064 nM antibody
row,Binder,MFI [MFI]
1,B1,152
2,B2,150

# Target: human DLL3 protein expressed on CHO-K1 recombinant cells (human DLL3 extracellular segment fused to EpCAM transmembrane and intracellular regions) (human) (UniProt Q9NYJ7)
# Assay: FACS, CHO-K1 hDLL3 cells, 0.16 nM antibody
row,Binder,MFI [MFI]
1,B1,941
2,B2,870

# Target: monkey DLL3 on CHO-K1-cyno DLL3 cells (cynomolgus monkey)
# Assay: FACS, CHO-K1-cyno DLL3 cells, 20 nM antibody
row,Binder,MFI [MFI]
1,B1,6720
2,B2,7180

# Target: mouse DLL3 on CHO-K1-mDLL3 cells (mouse) (UniProt O88516)
# Assay: FACS, CHO-K1-mDLL3 cells, 4 nM antibody
row,Binder,MFI [MFI]
1,B1,1040
2,B2,1210

# Target: human DLL3 protein expressed on CHO-K1 recombinant cells (human DLL3 extracellular segment fused to EpCAM transmembrane and intracellular regions) (human) (UniProt Q9NYJ7)
# Assay: FACS, CHO-K1 hDLL3 cells, 0.8 nM antibody
row,Binder,MFI [MFI]
1,B1,5070
2,B2,4390

# Target: monkey DLL3 on CHO-K1-cyno DLL3 cells (cynomolgus monkey)
# Assay: FACS, CHO-K1-cyno DLL3 cells, 4 nM antibody
row,Binder,MFI [MFI]
1,B1,5910
2,B2,6520

# Target: DLL3 endogenously expressed on NCI-H82 cells (UniProt Q9NYJ7)
# Assay: FACS on NCI-H82 cells; antibody 0.8 nM
row,Binder,MFI
1,B1,993
2,B2,942

# Source: EP4786492A1
